Assay results from publication doi:10.1101/2021.07.05.451109 (bioRxiv, 2021).

Legend:
[1] = molecular target: NLuc/CXCR4 (genome-edited, HeLa cells) (human (endogenous in HeLa), UniProt P61073 1-352); assay: FRET or BRET
[2] = molecular target: NLuc/CXCR4 (genome-edited, HEK293 cells) (human (endogenous in HEK293), UniProt P61073 1-352); assay: FRET or BRET
NLuc/CXCR4 (genome-edited, HEK293 cells), sequence (P61073 whole entry): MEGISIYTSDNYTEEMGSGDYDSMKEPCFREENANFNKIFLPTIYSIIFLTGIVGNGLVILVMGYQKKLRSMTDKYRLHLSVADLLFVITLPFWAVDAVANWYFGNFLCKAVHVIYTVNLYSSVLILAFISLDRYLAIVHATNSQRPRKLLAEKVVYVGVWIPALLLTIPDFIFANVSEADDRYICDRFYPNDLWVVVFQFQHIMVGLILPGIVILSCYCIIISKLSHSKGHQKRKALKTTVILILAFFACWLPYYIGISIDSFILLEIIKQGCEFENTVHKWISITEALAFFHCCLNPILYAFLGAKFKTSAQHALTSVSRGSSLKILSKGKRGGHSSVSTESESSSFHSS

NLuc/CXCR4 (genome-edited, HeLa cells), sequence (P61073 whole entry): as above

pKi [1]: 6.15 ± 0.27
pKi [2]: 6.14 ± 0.3
B1: 24Leu-CXCL17 (ligand)
chain: LNPGVARGHRDRGQASRRWLQEGGQECECKDWFLRAPRRKFMTVSGLPKKQCPCDHFKGNVKKTRHQRHHRKPNKHSRACQQFLKQCQLRSFALPL
